Numbering of substitutions follows the chain as printed.
B1: M8a-3 (antibody, V domains shown)
VH: QVQLQQPGAELVLPGASVKLSCKASGYTFTNYWMHWVKQRPGHGLEWIGEIDPFDTYIKINQKFKGKSTLTVDTSSSTAYMQLSSLTSEDSAVYYCARPDSSGYPVYFDYWGQGTTLTVSS
VL: DIVMTQSHKFMSTSVGDRVSITCKASQDVGTYIAWYQQKPGQSPKLLIYWASTRHTGVPDRFTGSGSGTNYTLTISSVQAEDLALYHCQQHYSTPYTFGGGTKLEIK
B2: M8a-7 (antibody, V domains shown)
VH: QAYLQQSGAEMVRPGASVKMSCKASGYTFNNYNMHWVKQTPSQGLEWIGGFYPGNDDTAYSQKFKGKATLTVDKSSSTAFMHLSSLTSEDSAVYFCARSLGRYYAMDYWGQGTSVTVSS
VL: not shown
B3: M8a-15 (antibody, V domains shown)
VH: QVQLQQSGPELARPGASVKLSCRASGYTVTSFGLSWMKQRTGQGLEWIGEIYPTSKNTYYNDKFRTKATLTADKSSSTAYMELRSLTSEDSAVYFCVLYDYFDYWGQGTTLTVSS
VL: QIVLTQSPAIMSASPGEKVTISCSASSSVSYMYWYQQKTGSSPKPWIYRTSNLASGVPVRFSGSGSGTSYSLTISSMEAEDAATYYCQQYQSYPRTFGGGTKLEIK
B4: M8a-30 (antibody, V domains shown)
VH: QVHLQQSGPELVKPGASVKISCKASGYGFSSSWMNWVKQRPGKGLEWIGRIYPGDGDTNYNDKFQGKATLTADRSSSTAYMHLTSLTSADSAVYFCARSLLYSFDYWGQGTTLTVSS
VL: DVVVTQTPLSLPVSFGDQVSISCRSSQSLAGSYGHTYLSWYLHKSGQSPQLLIYGISNRFSGVPDRFSGSGSGTDFTLKISTIKPEDLGMYYCLQGTHQPLTFGAGTKLELK
B5: HSW-1 (antibody, V domains shown)
VH: QVQLQQPGAELVKPGTSMKLSCKASGYTFTSYWMHWVKQRPGQGLEWIGMIHPNSGSTKYNENFKSKATLTVDKSSSTAYMQFSSLTSEDSAVYYCVRSGSYYGTTYDYFDYWGQGTTLTVSS
VL: DIVLTQSPASLAVSLGQRATISCRASESVNIYGNSFMHWYQQKPGQPPKLLIFRASNLESGIPVRFSGSGSRTDFTLTINPVEADDVATYYCHQSNEDPFTFGSGTKLEIK
B6: M8a-28 (antibody, V domains shown)
VH: QVQLQQPGAELVKPGASVKMSCKASGYNFNHYWISWVKQRPGQGLEWIGDIYPLSHFTTYNEKFTNRATLTVDTSSTTAYMQLNSLTSDDSAVFYCARWDYFDSRTFDYWGQGTTLTVSS
VL: DILLTQFPAILSVSPGERVSFSCRASQTIGTNIHWYQQRINGSPRLLIKYASESISGIPSRFSGSGSGTDFSLSINNVESEDIADYYCQQINSWPLTFGAGTKLDLK
B7: M8a-25 (antibody, V domains shown)
VH: EVQLQQSVAELVRPGASVKLSCTASGFNIKNTYMHWVKQRPEQGLEWIGRIDPSIDHTRYAPKFQGKAVITAFTSSNTAYLQLSSLTSEDTAIYYCAREGGGNYPYYYAIDYWGQGTSVTVSS
VL: DIQMTQSSSSFSVSLGDRVTITCKASEDIYIRLAWYQQRPGNAPRLLISNAISLETGVPSRFSGSGFGKDHTLSITSLQTEDVATYYCQQYWSTPWTFGGGTKLEIK
B8: M8a-29 (antibody, V domains shown)
VH: B7 VH
VL: DIVMTQAAFSNPVTLGTSASISCRSTKSLLHSNGITYLYWYLQKPGQSPQLLIYQMSNLASGVPDRFSSSGSGTDFTLRISRVEAEDVGVYYCAQNLELPYTFGGGTKLEIK
B9: M8a-11 (antibody, V domains shown)
VH: EVQLQQSGPELVKPGASVKIPCKASGYTFTDYNMDWVKQSHEKSLEWIGEIDPNNGDTIYNQKFKGKASLTVDKSSSTAYMELRSLTSEDTAVYYCAKRGYYGSSLWWYFDVWGTGTTVTVSS
VL: B7 VL with F67S, H71Y
B10: M8a-6 (antibody, V domains shown)
VH: QVQLQQPGTELVMPGASVKLSCKTSGYTFTHYWMHWVKQRPGEGLEWIGEIAPSDNYVKYNQKFKGKSTLSVDRSSSTAYMQLSSLTSEDSAVYFCARPDNSGYPVYFDYWGQGTSLTVSS
VL: DIVMTQSQKFMSTSLGDRVSISCKASQDVGTTVAWYQQKPGQSPKLLIYWASTRHTGVPDRFTGTGSGTDYTLTISSVAAEDLALYYCQQHYNTPYTFGGGTKLEIE

Each binder was assayed against BM4831 RBD (assay: ELISA).
B1 showed an EC50 greater than 10 mg/L. In the case of B2, the EC50 is reported as greater than 10 mg/L. With B3 the EC50 was greater than 10 mg/L. B4 was tested, and the EC50 was greater than 10 mg/L. In the case of B5, the EC50 is reported as greater than 10 mg/L. With B6 the EC50 was greater than 10 mg/L. B7 was tested, and the EC50 was greater than 10 mg/L. With B8 the EC50 was greater than 10 mg/L. With B9 the EC50 was greater than 10 mg/L. B10 showed an EC50 greater than 10 mg/L.

Each binder was assayed against Yun11 RBD (assay: ELISA).
With B2 the EC50 was greater than 10 mg/L. B5 showed an EC50 greater than 10 mg/L. B7 was tested, and the EC50 was greater than 10 mg/L. B8 showed an EC50 greater than 10 mg/L.

These binders were tested against SHC014 RBD (assay: ELISA).
B2 was tested, and the EC50 was greater than 10 mg/L. In the case of B3, the EC50 is reported as greater than 10 mg/L. B7 was tested, and the EC50 was greater than 10 mg/L. B8 showed an EC50 greater than 10 mg/L. With B9 the EC50 was greater than 10 mg/L.

Each binder was assayed against RaTG13 RBD (assay: ELISA).
B2 gave an EC50 greater than 10 mg/L. In the case of B3, the EC50 is reported as greater than 10 mg/L. For B4, the EC50 was greater than 10 mg/L. In the case of B7, the EC50 is reported as greater than 10 mg/L. With B8 the EC50 was greater than 10 mg/L. For B9, the EC50 was greater than 10 mg/L.

These binders were tested against LyRa3 RBD (assay: ELISA).
With B3 the EC50 was greater than 10 mg/L. B7 was tested, and the EC50 was greater than 10 mg/L. For B8, the EC50 was greater than 10 mg/L. B9 was tested, and the EC50 was greater than 10 mg/L. Work on B10 yielded an EC50 greater than 10 mg/L.

What follows are binders tested against Rf1 RBD (assay: ELISA).
B1 showed an EC50 greater than 10 mg/L. B2 was tested, and the EC50 was greater than 10 mg/L. B8 gave an EC50 greater than 10 mg/L.

These binders were tested against Rs4081 RBD (assay: ELISA).
For B2, the EC50 was greater than 10 mg/L. B3 gave an EC50 greater than 10 mg/L. B7 was tested, and the EC50 was greater than 10 mg/L. B10 gave an EC50 greater than 10 mg/L.

Each binder was assayed against RsSTT200 RBD (assay: ELISA).
For B2, the EC50 was greater than 10 mg/L. For B3, the EC50 was greater than 10 mg/L. With B4 the EC50 was greater than 10 mg/L. For B7, the EC50 was greater than 10 mg/L. In the case of B8, the EC50 is reported as greater than 10 mg/L. B9 gave an EC50 greater than 10 mg/L.

Each binder was assayed against Pang17 RBD (assay: ELISA).
With B2 the EC50 was greater than 10 mg/L. Work on B3 yielded an EC50 greater than 10 mg/L. B6 was tested, and the EC50 was greater than 10 mg/L. B7 was tested, and the EC50 was greater than 10 mg/L. B8 showed an EC50 greater than 10 mg/L. Binder B9 has an EC50 greater than 10 mg/L.

What follows are binders tested against C028 RBD (assay: ELISA).
Work on B2 yielded an EC50 greater than 10 mg/L. Work on B3 yielded an EC50 greater than 10 mg/L. For B4, the EC50 was greater than 10 mg/L. With B7 the EC50 was greater than 10 mg/L. In the case of B8, the EC50 is reported as greater than 10 mg/L. Work on B9 yielded an EC50 greater than 10 mg/L.

What follows are binders tested against BtKY72 RBD (assay: ELISA).
For B2, the EC50 was greater than 10 mg/L. With B3 the EC50 was greater than 10 mg/L. With B7 the EC50 was greater than 10 mg/L. Binder B8 has an EC50 greater than 10 mg/L. Binder B9 has an EC50 greater than 10 mg/L. B10 showed an EC50 greater than 10 mg/L.

Each binder was assayed against Khosta2 RBD (assay: ELISA).
B2 showed an EC50 greater than 10 mg/L. Binder B3 has an EC50 greater than 10 mg/L. Binder B4 has an EC50 greater than 10 mg/L. With B5 the EC50 was greater than 10 mg/L. B7 showed an EC50 greater than 10 mg/L. Binder B8 has an EC50 greater than 10 mg/L. B9 showed an EC50 greater than 10 mg/L. B10 was tested, and the EC50 was greater than 10 mg/L.

These binders were tested against RmYN02 RBD (assay: ELISA).
With B2 the EC50 was greater than 10 mg/L. For B8, the EC50 was greater than 10 mg/L.
